This passage reports amyloid nucleation score results from the supplement of paper PMC12042874.

± gives the uncertainty stated by the source.

The data set is described as follows: amyloid nucleation score (Sup35N fusion, yeast selection) (log enrichment); library NNK1; higher = more nucleation; inactive = no reads after selection. The method in brief:
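Growth for 7 days at 30°C on medium lacking adenine and uracil followed a 24-hour induction with 100 μM copper sulfate of psi-negative yeast expressing peptides of 20 random codons fused to Sup35N. Input and output plasmid inserts were sequenced with Illumina, and sequences with under 100 input reads were excluded. Nucleation score is the DiMSum log enrichment of output over input reads, centred on the mode score of non-aggregating sequences.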
Regarding IDRSLETTTVRGLVVRCYNG, the amyloid nucleation score stood at 0.369 ± 0.35. For LVIYVVSDDSVGLTNWRIVA the value was 3.76 ± 0.065; for WRGLPSNG, 0.024 ± 0.36. GYGIGDGRVHTQNKVGCYGG registered an amyloid nucleation score of 1.33 ± 0.66. Substance ADFFESEQVHYKSELAKNHG came in with an amyloid nucleation score of 0.049 ± 0.69. With SSLVVAWF the figure was 0.219 ± 0.21; with KSCTCRNSSYRYVHINLARY, -0.253 ± 0.6. INMRKYSNTGSGRLIFNFAF yielded an amyloid nucleation score of 6.039 ± 0.052. VTLGHHDRSCFYEDSVQTRD: the amyloid nucleation score was determined as 0.832 ± 0.49. In the case of FFGFMILNYKFSK, the amyloid nucleation score result was “inactive”.

In turn, RNLWGCMIWGMRG returned an amyloid nucleation score of 1.83 ± 0.36.

The substance MNYVSMHDYYRVVH registered an amyloid nucleation score of 0.128 ± 0.61. On to FIRIVRIYSLEFALYLGVFQ, for which the amyloid nucleation score was 4.51 ± 0.05. TNSPKKGMNGYGFNATVWTS yielded an amyloid nucleation score of 0.413 ± 0.9. For VWSKVLGSGRWSVVRGRAWR the value was 1.63 ± 0.21; for FTMLYSVYPSGRPGSQSGR, 1.92 ± 0.21. On to TRLLSYFDTRRELNCKVYYN, for which the amyloid nucleation score is -0.053 ± 0.66. The substance FGLKYRSDGVPCPDYLARKY returned an amyloid nucleation score of 0.702 ± 0.51. Take YYWRPIQVVCLLASCKRTWR: the amyloid nucleation score amounted to 7.749 ± 0.064. AFDIVDRSRYILY: the amyloid nucleation score is 0.58 ± 0.6. As for TLRSTWFRMCHTISA, the amyloid nucleation score worked out at 0.441 ± 0.25. With GEERHAAYTNWFFLRCLLTY, the amyloid nucleation score was -0.046 ± 0.65.

In turn, VITTNLTCFALSYAAVFISK returned an amyloid nucleation score of 3.69 ± 0.078. In turn, LCMKFSAVFWELKRV came in with an amyloid nucleation score of 0.498 ± 0.52.

Regarding FVNFWN, the amyloid nucleation score came out at 0.473 ± 0.53. Substance SCKCLTSTGGGSGDRKGWNG had an amyloid nucleation score of 0.916 ± 0.55. Substance VPYQCDKTKHFVRKVLILGA showed an amyloid nucleation score of 1.81 ± 0.58. On to SVPAHFNRYMCNRGYCRFRR, for which the amyloid nucleation score result was “inactive”. With LFVNFGTLS the figure was 0.391 ± 0.41. With PMFSSGLT, the amyloid nucleation score is 0.099 ± 0.42.

For the substance RIYRHIIVTGDNII, the amyloid nucleation score was found to be 2.57 ± 0.56. For the substance FASRNISG, the amyloid nucleation score was -0.054 ± 0.5. Turning to LSPGRYFDSPL, the amyloid nucleation score stood at 0.589 ± 0.77. As to MYCWY, the amyloid nucleation score result was “inactive”. The substance TYDGSKAIVALSKGNKN came in with an amyloid nucleation score of 0.915 ± 0.51. NSVHWTASGSDSIPTAIESR yielded an amyloid nucleation score of 1.58 ± 0.2.

In the case of GTNFS, the amyloid nucleation score stood at 0.498 ± 0.97. Substance YINTGVLYFGFCGL yielded an amyloid nucleation score of 7.117 ± 0.06. Regarding NWGVIVMFTYYRSSSGNLAC, the amyloid nucleation score amounted to 1.35 ± 0.45.

Turning to IDEVEGIRRFGLWELRLVCP, the amyloid nucleation score was -0.225 ± 0.28. Substance TRQNMFGIHHPWYNRRIS displayed an amyloid nucleation score of -0.458 ± 0.42. CAKGGPSGYKN returned an amyloid nucleation score of -1.41 ± 0.98.

Substance AFAVTASAITTVPPYREFVG yielded an amyloid nucleation score of -0.545 ± 0.82. For SICFYSLNSTPSLVGSWWGG, the amyloid nucleation score is 1.3 ± 0.85. Turning to VMSKSNPIAV, the amyloid nucleation score came to 0.24 ± 0.54. As for MRKVYNEWLKTNYYKHMNRV, the amyloid nucleation score stood at 0.452 ± 0.51.

TIGLCAMYSAARLLV: the amyloid nucleation score amounted to 0.717 ± 0.93.

Substance KRRVSLCMPWVGSDRRVFMG showed an amyloid nucleation score of 0.377 ± 0.31.

The substance VFLSIGTERMILLIVWHCLN registered an amyloid nucleation score of -0.34 ± 0.57.

As to KTYRAIQLSYRIPMKMFRFD, the amyloid nucleation score is -0.3 ± 0.25.

The substance VGRHALGTSRGKRL showed an amyloid nucleation score of -0.307 ± 0.67. With RSLFLDCS the figure was -0.475 ± 0.91.

With DYCRLMAWLSL, the amyloid nucleation score was determined as 0.315 ± 0.51. The substance FNWDGQFAVCMWKS showed an amyloid nucleation score of -0.221 ± 0.38.

Take TISSLLFI: the amyloid nucleation score is -0.252 ± 0.47. AFALHSHFLSL showed an amyloid nucleation score of 1.75 ± 0.19.

In turn, NGCLITSWDYCSCRAVYQLT returned an amyloid nucleation score of -0.602 ± 0.39. As to WRSVPRASFRNWSLWDPLYT, the amyloid nucleation score is 0.453 ± 0.29.

With IVVSVVTASI, the amyloid nucleation score was -0.018 ± 0.75. On to SVYVGRGHFLQKFRRLLRFE, for which the amyloid nucleation score result was “inactive”. For the substance MREELRGSETG, the amyloid nucleation score was -0.685 ± 0.63.

WSPEMNVVKFTLFYNRSSRF showed an amyloid nucleation score of 7.13 ± 0.078. QGKISGNRRSFFWW returned an amyloid nucleation score of -0.765 ± 0.44. With DIRIPMHLSIDLQVVLSLRY, the amyloid nucleation score came to 0.172 ± 0.63. For MFDTRDRMAALTFVKRMWCK, the amyloid nucleation score entry was “inactive”. The substance TASCVIMELPVGTNDKYVWT displayed an amyloid nucleation score of 0.296 ± 0.5. In the case of LIWSMEALYFMDLLGG, the amyloid nucleation score result is “inactive”.

The substance LIFMMDEVMYNGVSCFVRRE gave an amyloid nucleation score of 0.136 ± 0.69. In turn, WLDAVGMAAG came in with an amyloid nucleation score of -0.989 ± 2.7. In the case of TIIVDDGWRAYSRLS, the amyloid nucleation score is 0.22 ± 0.71. In turn, SCAAILEDVVHSAHILYLSH returned an amyloid nucleation score of -0.92 ± 0.96. With DSSRNGKF the figure was -0.563 ± 0.64. Turning to AFVLDIYMGMRSRYNDAPS, the amyloid nucleation score came to 1.78 ± 0.31. As for WRQWKTLTARLTAMKA, the amyloid nucleation score was -0.178 ± 0.33. As for VRLCLVLLESDLLTGTVGIG, the amyloid nucleation score is -1.02 ± 1.2. With DIFVLMRAMWHRGMI the figure was 0.857 ± 0.8; with MDRNFSILTF, “inactive”; with VLSAGVCFMTRVRSVFDGVH, 2.14 ± 0.24. HQTEEISKSSFFQCNMVQCW registered an amyloid nucleation score of 2.94 ± 0.071. For HSAALWIVWR the value was -0.358 ± 0.62. For AFPQFLGCLVIFQSHGRRER, the amyloid nucleation score stood at 8.1 ± 0.064. Turning to AKSREWGDIARFSHPPALRA, the amyloid nucleation score was -0.147 ± 0.4. For YGASI, the amyloid nucleation score worked out at 0.136 ± 0.47. The substance IPGGLNKERPYWYCTQMAGT registered an amyloid nucleation score of 1.25 ± 0.55.

Turning to RTGLY, the amyloid nucleation score stood at 0.108 ± 0.33. Consider CIIDKFGVLIV, for which the amyloid nucleation score entry was “inactive”. With KMLVSDTNGESSPLL the figure was 0.124 ± 0.39. With MRLTNGSCHFVLF, the amyloid nucleation score was -0.745 ± 1.7. As for LWGDYPFRDVPRTMVDQRRN, the amyloid nucleation score turned out to be 0.079 ± 0.98.

Consider FHNRINKPTK, for which the amyloid nucleation score entry was “inactive”.

As to DWNSNPPHSASAGLPLRFWK, the amyloid nucleation score result is “inactive”. With IFLYDRLNGDPFSSRW the figure was 0.729 ± 0.9; with LVCSGKWFVKSARLQ, 0.962 ± 0.14. Regarding RRKESYYGSSTYVSTNYAL, the amyloid nucleation score was -0.075 ± 0.68. CFVMLFDRYVNLLIGNQLWY yielded an amyloid nucleation score of 0.145 ± 0.35. The substance LMSTVIVESVVIWGMAARVQ came in with an amyloid nucleation score of 2.62 ± 0.11. Substance DTSVFWVKIYIFGSISHWAG displayed an amyloid nucleation score of 0.606 ± 1. MPVFSFLWPMKDMPHKVLS returned an amyloid nucleation score of 0.364 ± 0.36. As for HSIWSRERVVVGVIYVCNFN, the amyloid nucleation score is 7.227 ± 0.048. For IVFNIYLILAKWWVTVTYSD, the amyloid nucleation score is -1.25 ± 0.5.

The substance SVRGSYCYASLVCSDFL had an amyloid nucleation score of -1.12 ± 0.84. Substance ALLPKFCDIKFVVEKNGENR displayed an amyloid nucleation score of 0.181 ± 1.4.

Regarding NHSGSFKCGRIVSRYDD, the amyloid nucleation score is -1.37 ± 0.95. For RIYKSWSFRTLRLPEC the value was 2.25 ± 0.1; for SMGWYGYFLYLNCDDSFPYW, 3.79 ± 0.069; for GKKAYALGMSYLESCL, 1.37 ± 0.73. With HNLDCKRVGSARTWIEWWVG the figure was 0.07 ± 0.3; with YQCYSFRVNFGGCWLAQHLL, 4.64 ± 0.13. For LLQMWMEWRVFYYHLFVSAS the value was 0.085 ± 0.55; for YMCTLRGGGSDCTWAYPKWG, 0.275 ± 0.48; for VWPAQGS, -0.325 ± 0.8. On to QYFKNDVKYVPFG, for which the amyloid nucleation score was -0.514 ± 1.1. Regarding PASSCAVVELGMKVGEGGIP, the amyloid nucleation score is -0.386 ± 0.95.

Consider WASGRGSSVRIKQLPHDRQQ, for which the amyloid nucleation score was -0.779 ± 0.43. In turn, SHPNRTCKWLHSSVLRTPVL returned an amyloid nucleation score of 0.313 ± 0.49.

With ANWFL, the amyloid nucleation score was found to be 0.479 ± 0.45. For the substance NPWVWTLSIEQGRNE, the amyloid nucleation score was determined as 0.074 ± 0.34. With LNHSAIRHTVSGLNPWSWAG the figure was -0.288 ± 1.5.

In turn, EHRLR registered an amyloid nucleation score of 0.477 ± 0.59. For YVFSG, the amyloid nucleation score was -0.202 ± 0.32. Regarding ANFGFWFAFYSAARSDRTSL, the amyloid nucleation score was -0.421 ± 1.2. The substance GGRSS showed an amyloid nucleation score of -0.058 ± 0.58. In turn, QWRSFYTAWVAYRDECPGGF gave an amyloid nucleation score of 2.44 ± 0.15. ITVST came in with an amyloid nucleation score of -0.134 ± 1.4. YRESSATGMMSGSDLKRWQV returned an amyloid nucleation score of -2 ± 2.4. Turning to VVGSMVRSGLGPQPMTS, the amyloid nucleation score was 1.08 ± 0.68. With SAHITDVLHKMWRNNTTTWY the figure was 1.15 ± 0.55. For TMYWITQKVEKSSHMVCRVT the value was 2.61 ± 0.078; for GLTKYV, -0.462 ± 0.28; for PKVWGGIHYFHFVTEYSTIS, 0.309 ± 0.29. IGTSFVYNYFDHFLK yielded an amyloid nucleation score of 5.59 ± 0.062. Turning to TLIGFWPTRSFSSAVRYNPN, the amyloid nucleation score was -0.116 ± 1. The substance LCNPQYM yielded an amyloid nucleation score of 1.38 ± 0.69.

For YSSLRGWLC, the amyloid nucleation score entry is “inactive”. SEHVIIGRRDFV came in with an amyloid nucleation score of -0.018 ± 1. As to MGDSISVFMKSRFCVCTWGG, the amyloid nucleation score entry is “inactive”.

MSSSKGVVYDCFCSMWWLLP showed an amyloid nucleation score of 0.018 ± 0.73. Substance MRLSQGGPLRLPRVTFSRYC displayed an amyloid nucleation score of 0.027 ± 1.7.

PDRGEKLRRLNVWNKPCFGT: the amyloid nucleation score turned out to be 0.829 ± 0.93. For ICTVSLLYFVYDKYCHNATL the value was -0.444 ± 0.56; for LPFMHYYHSGY, -0.814 ± 1.4.
